In patent publication US20030104981A1, “Human insulin analogues” (priority 1995, published 2003):

Key:
[1] = biological target: insulin-degrading enzyme (IDE); experiment: cell-based or functional assay
[2] = biological target: insulin receptor in the LB lymphoma cell; experiment: competition with native insulin for insulin receptors on LB lymphoma cells
Sequence of insulin receptor in the LB lymphoma cell (P15208 28-748, chain 1 of 2): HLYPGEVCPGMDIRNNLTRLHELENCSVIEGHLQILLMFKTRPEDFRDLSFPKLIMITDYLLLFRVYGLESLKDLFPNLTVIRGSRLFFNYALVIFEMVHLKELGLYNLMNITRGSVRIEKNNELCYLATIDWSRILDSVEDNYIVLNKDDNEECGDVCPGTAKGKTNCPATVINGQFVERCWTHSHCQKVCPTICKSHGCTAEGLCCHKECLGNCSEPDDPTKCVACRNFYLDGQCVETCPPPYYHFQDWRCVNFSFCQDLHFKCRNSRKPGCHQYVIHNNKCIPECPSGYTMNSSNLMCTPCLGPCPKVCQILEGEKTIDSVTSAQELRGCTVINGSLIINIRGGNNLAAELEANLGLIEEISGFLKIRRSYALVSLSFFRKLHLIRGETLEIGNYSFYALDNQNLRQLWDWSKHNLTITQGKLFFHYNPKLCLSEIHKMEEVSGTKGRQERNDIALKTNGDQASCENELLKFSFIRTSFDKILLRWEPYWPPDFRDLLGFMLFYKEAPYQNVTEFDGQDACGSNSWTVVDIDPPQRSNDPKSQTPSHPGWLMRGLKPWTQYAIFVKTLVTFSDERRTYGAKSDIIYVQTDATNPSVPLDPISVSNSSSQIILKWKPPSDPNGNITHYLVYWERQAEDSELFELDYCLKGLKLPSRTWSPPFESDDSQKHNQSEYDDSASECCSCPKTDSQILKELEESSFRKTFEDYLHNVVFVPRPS
Sequence of insulin receptor in the LB lymphoma cell (P15208 753-1372, chain 2 of 2): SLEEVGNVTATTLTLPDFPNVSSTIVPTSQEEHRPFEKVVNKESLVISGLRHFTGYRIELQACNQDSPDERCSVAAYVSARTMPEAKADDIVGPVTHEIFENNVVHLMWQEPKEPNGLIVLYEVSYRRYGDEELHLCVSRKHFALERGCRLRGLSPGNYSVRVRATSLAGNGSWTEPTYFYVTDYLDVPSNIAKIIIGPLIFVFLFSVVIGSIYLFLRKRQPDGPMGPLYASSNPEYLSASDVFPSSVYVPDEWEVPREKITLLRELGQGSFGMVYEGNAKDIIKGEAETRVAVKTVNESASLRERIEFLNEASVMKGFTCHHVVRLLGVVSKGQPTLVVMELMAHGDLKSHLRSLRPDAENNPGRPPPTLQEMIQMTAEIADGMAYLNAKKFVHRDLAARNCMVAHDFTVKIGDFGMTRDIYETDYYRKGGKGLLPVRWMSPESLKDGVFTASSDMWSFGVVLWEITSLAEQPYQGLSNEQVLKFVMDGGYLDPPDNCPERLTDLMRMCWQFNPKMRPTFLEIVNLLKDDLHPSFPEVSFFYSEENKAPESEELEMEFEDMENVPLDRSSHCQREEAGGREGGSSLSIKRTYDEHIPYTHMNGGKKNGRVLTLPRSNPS

stability from insulin-degrading enzyme against ^125I A14 porcine insulin (TCA precipitation or HPLC assay) [1] [times]	binding affinity as percent of native insulin [2] [%]	times less binding affinity than native insulin [2] [times]	TCA assay analysis of degradation, 10 minutes incubation [1] [%]	TCA assay analysis of degradation, 20 minutes incubation [1] [%]	TCA solubility after 15 minutes of incubation, IDE dilution 1:30 [1] [%]	Substance
4.5	10	10				des-(B26-B30)-[Glu-B10; Thr-B14; Ser-B17; Tyr-B25-NH2] Radoyka II human insulin analogue (ligand)
	20	5				des-(B26-B30)-[Glu-B10; Ser-B17; Tyr-B25-NH2] Radoyka I human insulin analogue (ligand)
			25.9	66.8	22.5	^125I A14 mono-iodo porcine insulin (from UniProt P01315 25-54) (ligand)
